Experimental data from the Human Domainome abundance scans (Beltran et al. 2025).
± gives the uncertainty stated by the source.

B1: Gamma-crystallin C, residues 4 to 79; numbered along this chain, P07315 (parent)
chain: ITFYEDRAFQGRSYETTTDCPNLQPYFSRCNSIRVESGCWMLYERPNYQGQQYLLRRGEYPDYQQWMGLSDSIRSC

Variants of: B1
Assay: abundance fitness (aPCA) (normalised: wild type 0, dead -1); higher = more abundant; growth selection in yeast, the domain comes from the species named
Conditions: Homo sapiens

In order of falling abundance fitness:
1. ITFYEDRAFQGRSYETTTDCPNLQPYFSRCNSIRVESGCWMLYERPNYQGQQYLLRCGEYPDYQQWMGLSDSIRSC [R57C]  0.142 ± 0.26
2. ITFYEDRAFQGRSYETTTDCPNLQPYFSRCNSIRVESGCWMLYERPNYQGQQYLLMRGEYPDYQQWMGLSDSIRSC [R56M]  0.118 ± 0.095
3. ITFYEDRAFQGRSYETTTDCPNLQPYFSRCNSIRVESGCWMLYERPGYQGQQYLLRRGEYPDYQQWMGLSDSIRSC [N47G]  0.08 ± 0.066
4. ITFYEDRAFQGRSYETTTDCPNLQPYFSRCNSIRVESGGWMLYERPNYQGQQYLLRRGEYPDYQQWMGLSDSIRSC [C39G]  0.08 ± 0.071
5. ITFYEDRAFQGRSYETTTDCPNLQPGFSRCNSIRVESGCWMLYERPNYQGQQYLLRRGEYPDYQQWMGLSDSIRSC [Y26G]  0.044 ± 0.084
6. ITFYEDRAFQGRSYETTTDCPNLQPYFSRSNSIRVESGCWMLYERPNYQGQQYLLRRGEYPDYQQWMGLSDSIRSC [C30S]  0.03 ± 0.071
7. ITFYEDRAFQGRSYETTTDCPNLQPYFSRCNSIRVESGCWMLYERPNYQGQQYLLRVGEYPDYQQWMGLSDSIRSC [R57V]  0.024 ± 0.078
8. ITFYEDRAFQGRSYETTTDCPNLQPYFSRCNSIRVESGCWMLYERPNYQGQQYLLRRYEYPDYQQWMGLSDSIRSC [G58Y]  0.009 ± 0.41
9. ITFYEDRAFQGRSYETTTDCPNLQPYFSRCNSIRVESGCWMLYERPYYQGQQYLLRRGEYPDYQQWMGLSDSIRSC [N47Y]  0.002 ± 0.24
10. ITFYEDRAFQGRSYETTTDCPNLQPYFSRCNSIRVESGCWMLYERPNYQGQQYLLRRGEYPVYQQWMGLSDSIRSC [D62V]  -0.015 ± 0.06
11. ITFYEDRAFQGRSYETTTDCPNLQPYFSRCNSIRVESGCWMLYERPNYQGQQYLLRRGEYPDYQQKMGLSDSIRSC [W66K]  -0.023 ± 0.095
12. ITFYEDRAFQGSSYETTTDCPNLQPYFSRCNSIRVESGCWMLYERPNYQGQQYLLRRGEYPDYQQWMGLSDSIRSC [R12S]  -0.033 ± 0.048
13. ITFYEDRAFQGRSYETTTDCPNLQPYFSRCNSIRVESGCWMLYERPNYQGQQYLLRSGEYPDYQQWMGLSDSIRSC [R57S]  -0.039 ± 0.11
14. ITFYEDRAFQGRSYETTTDEPNLQPYFSRCNSIRVESGCWMLYERPNYQGQQYLLRRGEYPDYQQWMGLSDSIRSC [C20E]  -0.041 ± 0.11
15. ITFYEDRAFQGRSYETTTDCPNLQPYFSRCNSIRVESGCWMLYERPNYNGQQYLLRRGEYPDYQQWMGLSDSIRSC [Q49N]  -0.053 ± 0.16
16. ITFYEDRAFQGCSYETTTDCPNLQPYFSRCNSIRVESGCWMLYERPNYQGQQYLLRRGEYPDYQQWMGLSDSIRSC [R12C]  -0.063 ± 0.063
17. ITMYEDRAFQGRSYETTTDCPNLQPYFSRCNSIRVESGCWMLYERPNYQGQQYLLRRGEYPDYQQWMGLSDSIRSC [F3M]  -0.071 ± 0.085
18. ITFYEDRAFQGRSLETTTDCPNLQPYFSRCNSIRVESGCWMLYERPNYQGQQYLLRRGEYPDYQQWMGLSDSIRSC [Y14L]  -0.101 ± 0.072
19. ITFYEDRAFQGRSYETTTDCPNLQPYFSRCNSIRVESGDWMLYERPNYQGQQYLLRRGEYPDYQQWMGLSDSIRSC [C39D]  -0.133 ± 0.12
20. ITFYEDRAFQGRSYETTTDCPNLQPYFSRCNSIRVESGCWMLYERPNYQGQQYDLRRGEYPDYQQWMGLSDSIRSC [L54D]  -0.149 ± 0.13
21. ITFYEDRAFQGRSYETTTDCPNLQPYFSRCNSIRVESGCWMLYERPNYQGQQYLLRRQEYPDYQQWMGLSDSIRSC [G58Q]  -0.166 ± 0.052
22. ITFYEDRAFQGRSYETTTDCPNLQPYFSRCNSIRVESGCWMLYERPNYQGCQYLLRRGEYPDYQQWMGLSDSIRSC [Q51C]  -0.19 ± 0.33
23. ITFYEDRAFQGRSYETTTDCPNLQPYFSRCNSIRVESGCWMLYERPNYQGQQYLLRRMEYPDYQQWMGLSDSIRSC [G58M]  -0.223 ± 0.12
24. ITFYEDRAFQGRSYETTTDCPNLQPYFSRCNSIRVESGCWMLYERPNYQGQQYLLRRGELPDYQQWMGLSDSIRSC [Y60L]  -0.247 ± 0.21
25. ITFYEDRAFQGRSYETTTDCPNLQPYFSRCNSIRVESGCWMLYERPNYQGQQYLLRYGEYPDYQQWMGLSDSIRSC [R57Y]  -0.269 ± 0.18
26. ITFYEDRAFQGRSQETTTDCPNLQPYFSRCNSIRVESGCWMLYERPNYQGQQYLLRRGEYPDYQQWMGLSDSIRSC [Y14Q]  -0.27 ± 0.22
27. ITFYEDRAFQGRSYETTTDCPNLQPYFSRCNSIRVESHCWMLYERPNYQGQQYLLRRGEYPDYQQWMGLSDSIRSC [G38H]  -0.309 ± 0.27
28. ITFYEDRAFQGRSYETTTDCPNLQPYFSRCNSIRVESGCWMLYERPNYQEQQYLLRRGEYPDYQQWMGLSDSIRSC [G50E]  -0.372 ± 0.074
29. ITFYEDRAFQGRSYETTTDCPNLQPYFSRCNSIRVESGCWMLYERPNYQGQQYLLRRGEYPPYQQWMGLSDSIRSC [D62P]  -0.401 ± 0.16
30. ITFYEDMAFQGRSYETTTDCPNLQPYFSRCNSIRVESGCWMLYERPNYQGQQYLLRRGEYPDYQQWMGLSDSIRSC [R7M]  -0.444 ± 0.21
31. ITFYEDRAFQGRSYETTTDCPNLQPYFSRGNSIRVESGCWMLYERPNYQGQQYLLRRGEYPDYQQWMGLSDSIRSC [C30G]  -0.582 ± 0.098
32. ITFYEDRAFQGRSYETTTDCPNLQPYFSRQNSIRVESGCWMLYERPNYQGQQYLLRRGEYPDYQQWMGLSDSIRSC [C30Q]  -0.713 ± 0.14
33. ITFYEDRAFQGRSYETTTDCPNLQPYFSRCNSIRVESGCWMLYERPNYQIQQYLLRRGEYPDYQQWMGLSDSIRSC [G50I]  -0.806 ± 0.37
34. ITFYEDRAFQGRSYETTTDCPNLQPYFSRCNSIRVESGCWMLDERPNYQGQQYLLRRGEYPDYQQWMGLSDSIRSC [Y43D]  -0.817 ± 0.29
35. ITFYEDRAFQGRSYETTTDCPNLQPYFSRCNSIRVESGCWMLYERPNYQHQQYLLRRGEYPDYQQWMGLSDSIRSC [G50H]  -0.857 ± 0.43
36. ITFYEDRAFQGRSYETTTDCPNLQPYFSRCNSIRVESGCWMLYERPPYQGQQYLLRRGEYPDYQQWMGLSDSIRSC [N47P]  -0.909 ± 0.4
